Reference: the supplement of paper PMC9170038

Test system: MS2 coat protein
Assay: apparent KD of MS2 coat protein; designed switch direction (-1 OFF switch, 1 ON switch): 1; higher = weaker reporter binding
Summary of the method: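 For each design, the apparent KD is the median over clusters of curves fitted to normalised cluster fluorescence. Clusters held RNA switches with common flanks, transcribed on Illumina chips by stalled E. coli RNA polymerase. These were titrated with SNAP-549-labelled MS2 coat protein, doubling from 0.7 or 1.5 nM to 3 µM, without input, with 200 uM small-molecule ligand, or with an oligonucleotide input.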

[1] = input ligand: microRNA oligo, concentration not stated

Sequence: AUUAUACAUGAGGAUCACCCAUGUAAUUAAUCUAGUAAGAUCUAGGAUAUCAGCUCGAUUAGAGCUGAGAAGGAGAUCACAUGU [SSNG3/20-D2] (Eterna round: R96, puzzle: Same State NG 3)
- apparent KD of MS2 coat protein [1]: 0.0429 µM

Sequence: AUUAUACAUGAGGAUCACCCAUGUAAUUAAUUAAUUAAGAUCAAGGAUAUCAGCUCGAUUAGAGCUGAGAAGGUGAUCACAUGU [SSNG3/20-B2] (Eterna round: R96, puzzle: Same State NG 3)
- apparent KD of MS2 coat protein [1]: 0.17 µM

Sequence: AUUAUUAAUGCAGGAUAUGAUUAACAUGAGGAUCACCCAUGUGGUGUUGUGAGUAAGGAGAGUGAUCAGAAGGGCAUUUUUUUU [JMF's solution 6] (Eterna round: R96, puzzle: Same State NG 2)
- apparent KD of MS2 coat protein [1]: 0.463 µM

Sequence: AUUAUUUCAUGAGGAUAUGGCACCUUAUUGGUGCCAGAAGGCAUGUCUAUUGACAUGAGGAUCACCCAUGUAUUAAAUUAUAUA [Eli NG1ss - 89] (Eterna round: R96, puzzle: Same State NG 1)
- apparent KD of MS2 coat protein [1]: 0.387 µM

Sequence: AUUCGAUAGAUAGGAUAUCACCAUACAUGAGGAUCACCCAUGUUGACCACGCUGGUUAUUCAUACUGAGAAGGAUCUUGAUGAC [JR_SSNG2_Sub005] (Eterna round: R96, puzzle: Same State NG 2)
- apparent KD of MS2 coat protein (input ligand: FMN 200 uM): 0.0278 µM
- apparent KD of MS2 coat protein [1]: 0.0311 µM
- apparent KD of MS2 coat protein (input ligand: none): 0.0522 µM

Sequence: AUUGCUAUCACAGGAUAUCAUGCGAAAAUCGCGUGAGAAGGGUGGACUCUGUCAUUCACGGAGGACAUGAGGAUCACCCAUGUC [SS NG10LRO16] (Eterna round: R96, puzzle: Same State NG 1)
- apparent KD of MS2 coat protein (input ligand: FMN 200 uM): 0.363 µM
- apparent KD of MS2 coat protein [1]: 0.0189 µM
- apparent KD of MS2 coat protein (input ligand: none): 0.0458 µM

Sequence: AUUGGGUAACGAGGAUAUCGUUUUUGUUUUUUUCGAGAAGGCGUUAUAGUUUCUUUCUAUUGUUACAUGAGGAUCACCCAUGUU [JR_SSNG1_Sub053] (Eterna round: R96, puzzle: Same State NG 1)
- apparent KD of MS2 coat protein (input ligand: FMN 200 uM): 0.0158 µM
- apparent KD of MS2 coat protein [1]: 0.0162 µM
- apparent KD of MS2 coat protein (input ligand: none): 0.0165 µM

Sequence: AUUGUUAAUGCAGGAUAUGAUUAACAUGAGGAUCACCCAUGUGGUGUUGUGAGUAAGGAGAGUGAUCAGAAGGGCAUUUUUUUU [JMF's solution 31] (Eterna round: R96, puzzle: Same State NG 2)
- apparent KD of MS2 coat protein (input ligand: FMN 200 uM): 0.826 µM
- apparent KD of MS2 coat protein [1]: 0.81 µM
- apparent KD of MS2 coat protein (input ligand: none): 0.616 µM

Sequence: AUUUAACAAGCUUUUUGCUCGUCUUAUAAACAUGAGGAUCACCCAUGUAAUAGCGUGAGAGUAAAUAAUUUAAUAAU [JMF 98] (puzzle: Sensor for hsa-mir-208a)
- apparent KD of MS2 coat protein (Eterna round: R95, input ligand: FMN 200 uM): 0.0129 µM
- apparent KD of MS2 coat protein (Eterna round: R95, input ligand: microRNA oligo, concentration not stated): 0.0532 µM

Sequence: AUUUUUAAUGCAGGAUAUGAUUAACAUGAGGAUCACCCAUGUGGUGUUGUGAGUAAGGAGAGUGAUCAGAAGGGCAUUUUUUUU [JMF's solution 30] (Eterna round: R96, puzzle: Same State NG 2)
- apparent KD of MS2 coat protein (input ligand: FMN 200 uM): 0.726 µM
- apparent KD of MS2 coat protein [1]: 0.354 µM
- apparent KD of MS2 coat protein (input ligand: none): 0.456 µM

Sequence: AUUUUUUAUGCAGGAUAUGAUUAACAUGAGGAUCACCCAUGUGGUGUUGUGAGUAAGGAGAGUGAUCAGAAGGGCAUUUUUUUU [JMF's solution 68] (Eterna round: R96, puzzle: Same State NG 2)
- apparent KD of MS2 coat protein (input ligand: FMN 200 uM): 0.579 µM
- apparent KD of MS2 coat protein [1]: 0.319 µM
- apparent KD of MS2 coat protein (input ligand: none): 0.401 µM

Sequence: CACCAGAGAGCAGGAUAUGGGCCACGGCCUAAGGGCUGUGAACUCACAUGAGGAUCACCCAUGUCCCAGAAGGGCUCCUGGCUA [Getiised] (Eterna round: R96, puzzle: Same State NG 2)
- apparent KD of MS2 coat protein (input ligand: FMN 200 uM): 0.0983 µM
- apparent KD of MS2 coat protein [1]: 0.602 µM
- apparent KD of MS2 coat protein (input ligand: none): 0.842 µM

Sequence: CACGUCUCGGUAGGAUAUGAGGUGCCAUAGGGAACAGCCUAUGGACAUGAGGAUCACCCAUGUCCUCAGAAGGGCCGGACGUGA [Leonis] (Eterna round: R96, puzzle: Same State NG 2)
- apparent KD of MS2 coat protein (input ligand: FMN 200 uM): 0.0181 µM
- apparent KD of MS2 coat protein [1]: 0.0489 µM
- apparent KD of MS2 coat protein (input ligand: none): 0.0682 µM
